Residue numbers refer to the chain shown, from its start. Names and notes keep the numbering of the source.
T1: dEsCas13d (Eubacterium siraeum, UniProt B0MS50 1-954, R295A;H300A;R849A;H854A)
T1 sequence: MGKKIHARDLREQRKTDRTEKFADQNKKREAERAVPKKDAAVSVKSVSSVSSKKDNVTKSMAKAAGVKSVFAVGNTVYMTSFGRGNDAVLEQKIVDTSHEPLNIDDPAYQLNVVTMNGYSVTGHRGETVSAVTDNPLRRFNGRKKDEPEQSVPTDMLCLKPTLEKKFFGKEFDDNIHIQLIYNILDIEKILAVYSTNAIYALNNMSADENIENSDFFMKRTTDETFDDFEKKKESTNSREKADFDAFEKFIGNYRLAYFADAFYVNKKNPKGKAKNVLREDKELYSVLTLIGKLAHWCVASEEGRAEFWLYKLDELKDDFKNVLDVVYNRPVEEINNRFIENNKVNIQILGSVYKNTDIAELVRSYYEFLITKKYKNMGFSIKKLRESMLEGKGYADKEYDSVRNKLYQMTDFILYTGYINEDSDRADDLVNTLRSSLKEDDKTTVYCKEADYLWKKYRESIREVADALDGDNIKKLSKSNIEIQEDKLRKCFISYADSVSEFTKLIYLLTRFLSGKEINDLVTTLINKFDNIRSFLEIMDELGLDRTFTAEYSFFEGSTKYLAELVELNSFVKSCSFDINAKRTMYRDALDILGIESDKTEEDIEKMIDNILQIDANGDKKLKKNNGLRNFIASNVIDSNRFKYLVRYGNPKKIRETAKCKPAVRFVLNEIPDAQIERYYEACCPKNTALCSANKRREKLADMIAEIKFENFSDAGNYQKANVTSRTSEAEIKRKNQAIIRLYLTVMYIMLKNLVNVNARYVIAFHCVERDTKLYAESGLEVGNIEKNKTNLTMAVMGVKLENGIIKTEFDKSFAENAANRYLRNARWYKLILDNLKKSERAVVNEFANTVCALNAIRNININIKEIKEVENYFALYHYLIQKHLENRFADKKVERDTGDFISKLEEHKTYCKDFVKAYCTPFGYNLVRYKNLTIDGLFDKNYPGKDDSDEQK

T2: RfxCas13d (CasRx), nuclease-dead (Ruminococcus flavefaciens, R239A;H244A;R858A;H863A)
T2 chain: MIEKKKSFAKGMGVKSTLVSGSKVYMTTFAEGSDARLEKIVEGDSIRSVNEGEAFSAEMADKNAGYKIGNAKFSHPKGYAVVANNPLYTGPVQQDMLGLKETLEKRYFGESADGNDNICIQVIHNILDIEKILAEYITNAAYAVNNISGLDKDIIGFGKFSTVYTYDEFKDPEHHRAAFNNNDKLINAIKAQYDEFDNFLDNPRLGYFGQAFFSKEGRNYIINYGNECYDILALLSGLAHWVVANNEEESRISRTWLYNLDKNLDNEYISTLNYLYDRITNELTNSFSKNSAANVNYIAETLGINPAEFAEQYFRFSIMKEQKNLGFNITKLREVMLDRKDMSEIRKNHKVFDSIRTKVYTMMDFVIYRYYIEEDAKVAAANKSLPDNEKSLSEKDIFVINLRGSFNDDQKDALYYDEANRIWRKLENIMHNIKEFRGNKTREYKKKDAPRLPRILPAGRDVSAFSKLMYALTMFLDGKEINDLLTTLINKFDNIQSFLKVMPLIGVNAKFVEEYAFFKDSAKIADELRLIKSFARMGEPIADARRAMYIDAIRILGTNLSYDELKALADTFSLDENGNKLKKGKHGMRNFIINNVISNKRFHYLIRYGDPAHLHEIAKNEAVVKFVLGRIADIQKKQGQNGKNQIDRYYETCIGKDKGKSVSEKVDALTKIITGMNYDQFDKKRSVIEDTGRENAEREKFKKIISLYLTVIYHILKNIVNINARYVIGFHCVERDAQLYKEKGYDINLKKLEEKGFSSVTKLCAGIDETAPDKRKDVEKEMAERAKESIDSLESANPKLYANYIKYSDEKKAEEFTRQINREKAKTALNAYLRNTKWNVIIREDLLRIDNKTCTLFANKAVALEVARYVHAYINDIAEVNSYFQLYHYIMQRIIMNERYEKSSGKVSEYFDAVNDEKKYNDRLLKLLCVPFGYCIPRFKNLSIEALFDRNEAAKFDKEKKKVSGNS

B1: crRNA_Target 1 / MT (5'-GUA PFS) (ssRNA)
RNA 1: CACCCGUGCAAAAAUGCAGGGGUCUAAAACUGAGCGGAUAACCUCUCUAUGG
RNA 2: CCACAUCUACGAAUUCGUACCAUAGAGAGGUUAUCCGCUCACCGAGAUCGGAAGAGCACA
B2: target 1 G15A (60-mer) (mixed)
RNA 1: AACCCCUACCAACUGGUCGGGGUUUGAAACUGAGCGGAUAACCUCUCUAUGG
RNA 2: B1 RNA 2 with G27A
B3: target 1 C7A (60-mer) (mixed)
RNA 1: B2 RNA 1
RNA 2: B1 RNA 2 with C35A
B4: target 1 A20C (60-mer) (mixed)
RNA 1: B2 RNA 1
RNA 2: B1 RNA 2 with A22C
B5: target 1 A18G (60-mer) (mixed)
RNA 1: B2 RNA 1
RNA 2: B1 RNA 2 with A24G
B6: target 1 C22A (60-mer) (mixed)
RNA 1: B2 RNA 1
RNA 2: B1 RNA 2 with C20A
B7: crRNA_Target 1 / U9-flanked target (ssRNA)
RNA 1: B1 RNA 1
RNA 2: UUUUUUUUUCCAUAGAGAGGUUAUCCGCUCAUUUUUUUUU
B8: target 1 U10G (60-mer) (mixed)
RNA 1: B2 RNA 1
RNA 2: B1 RNA 2 with U32G
B9: target 1 G5U (60-mer) (mixed)
RNA 1: B2 RNA 1
RNA 2: B1 RNA 2 with G37U

Key:
[1] = system: dRfxCas13d (Ruminococcus flavefaciens); assay: BLI; conditions: 6 mM Mg2+; BLI: 40 mM Tris-HCl pH 7.5, 150 mM NaCl, 6 mM MgCl2, 1 mM DTT, 0.1% Tween-20, 0.2 mg/ml BSA; RNP 25-100 nM (dRfx 25 nM only); temperature not stated
dEsCas13d = molecular target: T1, dEsCas13d; assay: BLI; 6 mM Mg2+; BLI: 40 mM Tris-HCl pH 7.5, 150 mM NaCl, 6 mM MgCl2, 1 mM DTT, 0.1% Tween-20, 0.2 mg/ml BSA; RNP 25-100 nM (dRfx 25 nM only); temperature not stated; conditions: protein: recombinant, tags: 6xHis-TwinStrep-SUMO, cleaved, 22 nt crRNA-target match
[2] = molecular target: T2, RfxCas13d (CasRx), nuclease-dead; assay: BLI; crRNA (strand 1, pre-loaded); Mg2+; 40 mM Tris-HCl pH 7.5, 150 mM NaCl, 6 mM MgCl2, 1 mM DTT, 0.1% Tween-20, 0.2 mg/ml BSA; temperature not stated; conditions: tags: His6-TwinStrep-SUMO cleaved; label: 3' biotin on strand 2

Molecule	Kd [2] [nM]	further results
AACCCCUACCAACUGGUCGGGGUUUGAAACUGAGCGGAUAACCUCUCUAUGG / CCACAUCUACGAAUUCGUACCAUAGAGAGGUUAUCCGAUCACCGAGAUCGGAAGAGCACA [Rfx crRNA_Target 1 / C4A]		Kd [1]: 0.132 nM
B1		Kd (dEsCas13d; label: 3' biotin on target): 3.1 ± 0.018 nM
B2	~0.119	
B3	~0.175	
B4	~0.556	
B5	~0.886	
B6	~0.291	
B7		Kd (dEsCas13d): 1.6 ± 0.024 nM
B8	~0.271	
B9	~1.12	

From publication PMC10786891, “Massively parallel profiling of RNA-targeting CRISPR-Cas13d”
